Source: article PMC11417369, “DNA sequence and chromatin differentiate sequence-specific transcription factor binding in the human malaria parasite Plasmodium falciparum”

B1: GTGCAC_site9510 (dsDNA)
DNA 1: TGTTTATTTATTTGTGTGCACTCAGATTATATTATA
DNA 2: TATAATATAATCTGAGTGCACACAAATAAATAAACA
B2: GTGCAC_site9776 (dsDNA)
DNA 1: TTTATATATTTTGTCGTGCACATTTGGAAAATTACA
DNA 2: TGTAATTTTCCAAATGTGCACGACAAAATATATAAA
B3: GTGCAC_site10721 (dsDNA)
DNA 1: ATATTATATCTAATCGTGCACAACTGTACATTTGTC
DNA 2: GACAAATGTACAGTTGTGCACGATTAGATATAATAT
B4: GTGCAC_negctrl_site348 (dsDNA)
DNA 1: AAAATAAAAGAATAAAAATATGAAACTTTTTTAAAA
DNA 2: TTTTAAAAAAGTTTCATATTTTTATTCTTTTATTTT
B5: GTGCAC_site10117 (dsDNA)
DNA 1: AATAACTATATATGTGTGCACAAAAATTTGACATAA
DNA 2: TTATGTCAAATTTTTGTGCACACATATATAGTTATT
B6: GTGCAC_negctrl_site533 (dsDNA)
DNA 1: AAATTAATAAATATTTTTATAAATTATAATATTAAT
DNA 2: ATTAATATTATAATTTATAAAAATATTTATTAATTT
B7: GTGCAC_site9580 (dsDNA)
DNA 1: ATTTTTATTTTTTTTGTGCACATTTTCATTTTCTAT
DNA 2: ATAGAAAATGAAAATGTGCACAAAAAAAATAAAAAT
B8: GTGCAC_site10365 (dsDNA)
DNA 1: TTTCAATTTATCAGTGTGCACAAAAATAAAATAAAA
DNA 2: TTTTATTTTATTTTTGTGCACACTGATAAATTGAAA
B9: GTGCAC_site10155 (dsDNA)
DNA 1: TTGATAAAATCACTGGTGCATGTAGATATATAATAT
DNA 2: ATATTATATATCTACATGCACCAGTGATTTTATCAA
B10: GTGCAC_site10622 (dsDNA)
DNA 1: TATTATTCAAAATTTGTGCACAAAATTAAAGGAACA
DNA 2: TGTTCCTTTAATTTTGTGCACAAATTTTGAATAATA
B11: GTGCAC_site10129 (dsDNA)
DNA 1: GCATATGTATATAATGTGCACATGGATTATATAAAA
DNA 2: TTTTATATAATCCATGTGCACATTATATACATATGC
B12: GTGCAC_site10773 (dsDNA)
DNA 1: TATATATATATAATTGTGCACATAATTTTAAACCAA
DNA 2: TTGGTTTAAAATTATGTGCACAATTATATATATATA
B13: GTGCAC_site9953 (dsDNA)
DNA 1: ATATATCTTTATATAGTGCATTAAATATGTTGTAAT
DNA 2: ATTACAACATATTTAATGCACTATATAAAGATATAT
B14: GTGCAC_site10686 (dsDNA)
DNA 1: TATCCATTTCTTTATGTGCACATTAAATATATTTGT
DNA 2: ACAAATATATTTAATGTGCACATAAAGAAATGGATA
B15: GTGCAC_site9562 (dsDNA)
DNA 1: ACATTTAAATAATATGTGCACAGCTATATTTTCTTT
DNA 2: AAAGAAAATATAGCTGTGCACATATTATTTAAATGT
B16: GTGCAC_negctrl_site362 (dsDNA)
DNA 1: TATTATATCTTATATGTATATTCCCACAAATTATAT
DNA 2: ATATAATTTGTGGGAATATACATATAAGATATAATA
B17: GTGCAC_negctrl_site507 (dsDNA)
DNA 1: ATGTTGTTCATAAATATATTATTTTTAAATGTACAA
DNA 2: TTGTACATTTAAAAATAATATATTTATGAACAACAT
B18: GTGCAC_negctrl_site551 (dsDNA)
DNA 1: AAAAGGAATATAATCATTCAAAAATATAATATATAT
DNA 2: ATATATATTATATTTTTGAATGATTATATTCCTTTT
B19: GTGCAC_negctrl_site655 (dsDNA)
DNA 1: TCTTTTAACAAATAATAAGCTAATTTATATTATTAT
DNA 2: ATAATAATATAAATTAGCTTATTATTTGTTAAAAGA
B20: GTGCAC_negctrl_site549 (dsDNA)
DNA 1: TTTTTTATAGTACATTACCAAAAAAAAAAAAAAAAA
DNA 2: TTTTTTTTTTTTTTTTTGGTAATGTACTATAAAAAA
B21: GTGCAC_negctrl_site640 (dsDNA)
DNA 1: AGAAATATGTTGAAGCATTTATAATGTAGATATAAG
DNA 2: CTTATATCTACATTATAAATGCTTCAACATATTTCT
B22: GTGCAC_negctrl_site622 (dsDNA)
DNA 1: TTTTGAATATATTAAATAAATTAAAAATCTACAAAC
DNA 2: GTTTGTAGATTTTTAATTTATTTAATATATTCAAAA
B23: GTGCAC_negctrl_site213 (dsDNA)
DNA 1: TTTAATCAATGATTTAATGAAAAAAGCAAAAAAAAA
DNA 2: TTTTTTTTTGCTTTTTTCATTAAATCATTGATTAAA
B24: GTGCAC_negctrl_site465 (dsDNA)
DNA 1: AAAAAATGTAAATATAAACAACCAAAGGGGGTATAC
DNA 2: GTATACCCCCTTTGGTTGTTTATATTTACATTTTTT
B25: GTGCAC_negctrl_site354 (dsDNA)
DNA 1: ATAAATTGAAGTAAATTTGACCTTTTTTTTTTTTTT
DNA 2: AAAAAAAAAAAAAAGGTCAAATTTACTTCAATTTAT
B26: GTGCAC_negctrl_site532 (dsDNA)
DNA 1: AATAATTTTTAAATATAAACATTTTTTTTTTTTTTT
DNA 2: AAAAAAAAAAAAAAATGTTTATATTTAAAAATTATT
B27: GTGCAC_negctrl_site358 (dsDNA)
DNA 1: TACTGTATTATAATTATGATTGACGAAATTAAAAAT
DNA 2: ATTTTTAATTTCGTCAATCATAATTATAATACAGTA
B28: GTGCAC_negctrl_site596 (dsDNA)
DNA 1: TTTTTTATTTTATTTTATTTTTATTTTTTTTTTTTT
DNA 2: AAAAAAAAAAAAATAAAAATAAAATAAAATAAAAAA
B29: GTGCAC_negctrl_site17 (dsDNA)
DNA 1: TTTTTTTTTTTTTTTTTTTTCTTCATTTAATTTATA
DNA 2: TATAAATTAAATGAAGAAAAAAAAAAAAAAAAAAAA
B30: GTGCAC_negctrl_site541 (dsDNA)
DNA 1: TCCCCCTTTTTTTGATTTTTATCTTAATTCTAAAAG
DNA 2: CTTTTAGAATTAAGATAAAAATCAAAAAAAGGGGGA
B31: GTGCAC_negctrl_site230 (dsDNA)
DNA 1: TGTTGTTATAAAAAAAAAAAAAAAAAAAAAAAAAAA
DNA 2: TTTTTTTTTTTTTTTTTTTTTTTTTTTATAACAACA
B32: GTGCAC_negctrl_site20 (dsDNA)
DNA 1: TAGTTCCTCAAAAATTTCCTTTGTCATTTTATTCAC
DNA 2: GTGAATAAAATGACAAAGGAAATTTTTGAGGAACTA
B33: GTGCAC_negctrl_site710 (dsDNA)
DNA 1: AATATATTTTAGAGTTTTATATATTTTATGCATATA
DNA 2: TATATGCATAAAATATATAAAACTCTAAAATATATT
B34: GTGCAC_negctrl_site275 (dsDNA)
DNA 1: ATATTTTATCATGTTTAATATTTATGTGGACATAAA
DNA 2: TTTATGTCCACATAAATATTAAACATGATAAAATAT
B35: GTGCAC_negctrl_site486 (dsDNA)
DNA 1: TATTTATTATGATACTCATATTATTCTATGATTAAA
DNA 2: TTTAATCATAGAATAATATGAGTATCATAATAAATA
B36: GTGCAC_negctrl_site352 (dsDNA)
DNA 1: TTTTTTTTTTTTTTTTTTTTCACATGTGTGGAAAAA
DNA 2: TTTTTCCACACATGTGAAAAAAAAAAAAAAAAAAAA
B37: GTGCAC_negctrl_site151 (dsDNA)
DNA 1: TTTGTTCTATGGAGTTTAAAATGTAATATATATTAA
DNA 2: TTAATATATATTACATTTTAAACTCCATAGAACAAA
B38: GTGCAC_negctrl_site448 (dsDNA)
DNA 1: TCTTTTTAAATTACTATAATACATTCATAAATTATA
DNA 2: TATAATTTATGAATGTATTATAGTAATTTAAAAAGA
B39: GTGCAC_negctrl_site681 (dsDNA)
DNA 1: AAAGGTAAATGTAAATAAATAAATAATAAATATATA
DNA 2: TATATATTTATTATTTATTTATTTACATTTACCTTT
B40: GTGCAC_negctrl_site10 (dsDNA)
DNA 1: TGCCATATATATATTAAATACATAATAATGAGCCTA
DNA 2: TAGGCTCATTATTATGTATTTAATATATATATGGCA

target: T1, SIP2 D1 (Plasmodium falciparum, UniProt C6KSN9 177-235); assay: gcPBM; about 25 ug protein; PBS, 1% milk, 0.2 mg/ml BSA, salmon testes DNA, 0.03% Triton X-100; settings: tags: N-terminal GST (pGEX-4T-1), kept; label: surface-attached array probe
T1 sequence: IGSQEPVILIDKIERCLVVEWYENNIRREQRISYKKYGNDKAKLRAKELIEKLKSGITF

Binder | binding signal
B1 | 10.1 ln median PBM intensity, better of two orientations
B2 | 9.81 ln median PBM intensity, better of two orientations
B3 | 9.08 ln median PBM intensity, better of two orientations
B4 | 6.41 ln median PBM intensity, better of two orientations
B5 | 9.72 ln median PBM intensity, better of two orientations
B6 | 6.52 ln median PBM intensity, better of two orientations
B7 | 9.53 ln median PBM intensity, better of two orientations
B8 | 10.1 ln median PBM intensity, better of two orientations
B9 | 9.7 ln median PBM intensity, better of two orientations
B10 | 8.92 ln median PBM intensity, better of two orientations
B11 | 9.12 ln median PBM intensity, better of two orientations
B12 | 9.89 ln median PBM intensity, better of two orientations
B13 | 8.47 ln median PBM intensity, better of two orientations
B14 | 8.89 ln median PBM intensity, better of two orientations
B15 | 9.19 ln median PBM intensity, better of two orientations

target: T2, HDP1 homeodomain-like (Plasmodium falciparum, UniProt Q8IKH4 2990-3078); assay: as above; settings: tags: N-terminal GST (pGEX-4T-1), kept; chain copies: 2; label: surface-attached array probe
T2 sequence: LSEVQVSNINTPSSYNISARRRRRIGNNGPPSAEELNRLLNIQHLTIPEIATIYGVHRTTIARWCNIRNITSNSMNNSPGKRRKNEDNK

Binder | binding signal
B1 | 11.3 ln median PBM intensity, better of two orientations
B16 | 6.31 ln median PBM intensity, better of two orientations
B17 | 6.37 ln median PBM intensity, better of two orientations
B18 | 6.36 ln median PBM intensity, better of two orientations
B19 | 6.28 ln median PBM intensity, better of two orientations
B20 | 6.26 ln median PBM intensity, better of two orientations
B2 | 8.92 ln median PBM intensity, better of two orientations
B3 | 9.73 ln median PBM intensity, better of two orientations
B21 | 6.35 ln median PBM intensity, better of two orientations
B22 | 6.24 ln median PBM intensity, better of two orientations
B23 | 6.34 ln median PBM intensity, better of two orientations
B24 | 6.37 ln median PBM intensity, better of two orientations
B25 | 6.29 ln median PBM intensity, better of two orientations
B4 | 5.89 ln median PBM intensity, better of two orientations
B26 | 6.29 ln median PBM intensity, better of two orientations
B27 | 6.33 ln median PBM intensity, better of two orientations
B28 | 6.26 ln median PBM intensity, better of two orientations
B5 | 11.2 ln median PBM intensity, better of two orientations
B29 | 6.26 ln median PBM intensity, better of two orientations
B30 | 6.28 ln median PBM intensity, better of two orientations

Binder | binding signal
B31 | 6.26 ln median PBM intensity, better of two orientations
B32 | 6.25 ln median PBM intensity, better of two orientations
B33 | 6.25 ln median PBM intensity, better of two orientations
B6 | 5.92 ln median PBM intensity, better of two orientations
B7 | 11.3 ln median PBM intensity, better of two orientations
B8 | 11.4 ln median PBM intensity, better of two orientations
B9 | 9.06 ln median PBM intensity, better of two orientations
B10 | 11.1 ln median PBM intensity, better of two orientations
B11 | 11.2 ln median PBM intensity, better of two orientations
B34 | 6.34 ln median PBM intensity, better of two orientations
B12 | 11.1 ln median PBM intensity, better of two orientations
B35 | 6.33 ln median PBM intensity, better of two orientations
B13 | 8.99 ln median PBM intensity, better of two orientations
B14 | 11.4 ln median PBM intensity, better of two orientations
B36 | 6.23 ln median PBM intensity, better of two orientations
B37 | 6.25 ln median PBM intensity, better of two orientations
B38 | 6.3 ln median PBM intensity, better of two orientations
B15 | 10.9 ln median PBM intensity, better of two orientations
B39 | 6.27 ln median PBM intensity, better of two orientations
B40 | 6.22 ln median PBM intensity, better of two orientations
